The values that follow are results of earlier work, collected in publication PMC10524267.

The data set deals with CX3CR1 (Homo sapiens) (UniProt P49238).
Sequence of UniProt P49238 (P49238 whole entry): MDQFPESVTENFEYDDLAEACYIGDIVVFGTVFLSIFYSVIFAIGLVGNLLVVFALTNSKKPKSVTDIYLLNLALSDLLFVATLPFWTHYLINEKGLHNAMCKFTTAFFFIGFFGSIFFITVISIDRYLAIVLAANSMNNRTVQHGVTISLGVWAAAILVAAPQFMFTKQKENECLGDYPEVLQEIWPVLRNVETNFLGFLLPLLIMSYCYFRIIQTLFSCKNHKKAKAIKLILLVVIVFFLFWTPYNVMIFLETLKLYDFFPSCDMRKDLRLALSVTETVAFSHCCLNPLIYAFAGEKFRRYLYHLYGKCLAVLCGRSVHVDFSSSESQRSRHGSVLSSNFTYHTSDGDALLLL

On to CX3CL1 (from UniProt P78423), for which the Kd (in general, the equilibrium constant for the complex coming apart) was 0.91 nM.
